{
  "source": "paper PMC10589346",
  "about": "“Structural basis for recruitment of TASL by SLC15A4 in human endolysosomal TLR signaling” (Nature Communications, 2023)",
  "key": {"[1]": {"biological_target": "the molecule itself", "test": "cryo-EM structure; SLC15A4-ALFA tag co-expressed with ALFA nanobody in HEK293F, complex purified (Strep-Tactin, SEC) in LMNG/CHS; monomeric and dimeric particles found, monomer solved at 3.25 Å"}, "[2]": {"biological_target": "T1, human SLC15A4 with C-terminus flag-tag (co-expressed with TASL(1–20)-EGFP for cryo-EM) (human, UniProt Q8N697 1-577, N-glycosylation at N436)", "T1 construct": "human SLC15A4 (solute carrier family 15 member 4, PHT1), codon-optimized full-length cDNA, Uniprot Q8N697; pcDNA3.1 vector; residues 1–31 not visible in the map; also called PHT1; Solute carrier family 15 member 4; source: HEK293F, co-transfected with TASL(1–20)-EGFP, complex purified (Strep-Tactin, SEC) in LMNG/CHS; not shown: Flag, C-terminal, kept", "T1 sequence (Q8N697 whole entry, the tested form may be a part)": "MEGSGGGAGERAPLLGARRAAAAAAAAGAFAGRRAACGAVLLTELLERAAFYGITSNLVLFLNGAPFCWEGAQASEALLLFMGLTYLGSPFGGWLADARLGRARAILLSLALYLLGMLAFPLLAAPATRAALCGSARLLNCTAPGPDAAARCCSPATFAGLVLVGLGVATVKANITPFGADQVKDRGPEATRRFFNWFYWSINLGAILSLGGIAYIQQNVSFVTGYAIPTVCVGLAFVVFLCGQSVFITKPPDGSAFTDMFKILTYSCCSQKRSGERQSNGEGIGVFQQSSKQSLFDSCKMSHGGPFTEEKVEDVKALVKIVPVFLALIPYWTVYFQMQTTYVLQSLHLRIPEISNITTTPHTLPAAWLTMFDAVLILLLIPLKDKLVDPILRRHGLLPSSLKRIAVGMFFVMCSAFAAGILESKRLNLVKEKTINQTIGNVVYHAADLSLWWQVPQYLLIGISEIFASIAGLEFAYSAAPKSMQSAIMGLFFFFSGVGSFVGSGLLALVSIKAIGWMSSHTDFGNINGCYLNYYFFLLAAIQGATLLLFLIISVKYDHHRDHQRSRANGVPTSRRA", "test": "cryo-EM structure; SLC15A4-Flag and TASL(1–20)-EGFP-twin Strep co-expressed in HEK293F, complex purified by Strep-Tactin and SEC; 25 mM HEPES pH 7.4, 150 mM NaCl, 0.003% LMNG, 0.0003% CHS; 10–15 mg/ml; 3.03 Å, no symmetry imposed", "conditions": "both partners purified"}, "[3]": {"biological_target": "the molecule itself", "test": "cryo-EM structure; apo SLC15A4 (twin Strep-tag) from HEK293F in LMNG/CHS micelles; 25 mM HEPES pH 7.4, 150 mM NaCl; monomeric and dimeric particles found, dimer solved at 2.93 Å"}},
  "data": [
    {"binder": "human SLC15A4 with the 253–303 residues replaced by an ALFA tag (natural protein, N-glycosylation at N436, human SLC15A4, Uniprot Q8N697, from the start to residue 252; ALFA tag, put in place of residues 253–303 (loop between TM6 and TM7); human SLC15A4, Uniprot Q8N697, from residue 304 to the end; The complex was purified on Strep-Tactin by a 'similar protocol'; also called ALFA tagged SLC15A4; SLC15A4-ALFA tag; source: HEK293F, co-transfected with ALFA nanobody, complex purified (Strep-Tactin, SEC) …) not shown", "values": [
      {"measurement": "binding result", "setting": "[1]", "result": "binds"}
    ]},
    {"binder": "MLSEGYLSGLEYWNDIHWSC (domain or fragment, human, UniProt Q9HAI6 1-20, looked up, pCAG vector; also called CXorf21; source: HEK293F, co-transfected with SLC15A4-Flag, complex purified (Strep-Tactin, SEC) in LMNG/CHS; not shown: EGFP, C-terminal, kept; twin Strep-tag, C-terminal, kept)", "note": "[TASL(1–20)-EGFP with C-terminus twin Strep-tag]", "values": [
      {"measurement": "stoichiometry N", "setting": "[2]", "result": 1}
    ]},
    {"binder": "human full-length SLC15A4 with C-terminus tandem twin Strep-tag (natural protein, N-glycosylation at N436, human SLC15A4 (solute carrier family 15 member 4, PHT1), codon-optimized full-length cDNA, Uniprot Q8N697; also called apo SLC15A4; C-terminal strep-tagged SLC15A4; source: HEK293F, transfected, purified (Strep-Tactin, SEC) in LMNG/CHS; also co-expressed in HEK293F with TASL(1–20&207–301)-Flag; not shown: twin Strep-tag, C-terminal, kept) not shown", "values": [
      {"measurement": "stoichiometry N", "setting": "[3]", "result": 2}
    ]}
  ]
}
